Test results: publication PMC12333503

Target: FLAG-tagged TDP-marginal peptide 20 (TDP-MP20), shortened splicing isoform of TDP-43 (human (cDNA cloned from HEK293T cells))
Assay: co-IP; HEK293T cells co-overexpressing a FLAG-tagged TDP-43 isoform and FL-Venus; IP with anti-DDDDK (FLAG) antibody, 3 h at 4°C, Protein G Mag Sepharose beads, three low-salt washes and one high-salt wash; Venus signal normalised to FLAG signal in the IP (n = 3)

FLAG-tagged TDP-marginal peptide 20 (TDP-MP20), shortened splicing isoform of TDP-43 (human (cDNA cloned from HEK293T cells)), sequence (Q13148 whole entry, canonical isoform): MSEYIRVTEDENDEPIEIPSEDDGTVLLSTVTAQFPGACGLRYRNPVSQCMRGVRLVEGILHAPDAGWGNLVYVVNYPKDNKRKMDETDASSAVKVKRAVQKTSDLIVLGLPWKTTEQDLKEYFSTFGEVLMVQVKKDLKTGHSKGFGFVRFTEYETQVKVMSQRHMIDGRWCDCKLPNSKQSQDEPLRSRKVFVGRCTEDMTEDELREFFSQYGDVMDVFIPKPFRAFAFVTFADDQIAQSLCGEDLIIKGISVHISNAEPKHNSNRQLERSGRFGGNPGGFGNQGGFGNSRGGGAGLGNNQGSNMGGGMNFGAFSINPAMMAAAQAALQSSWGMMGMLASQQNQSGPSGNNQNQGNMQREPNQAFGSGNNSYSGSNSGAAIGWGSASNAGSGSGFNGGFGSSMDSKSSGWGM

- fold of co-precipitated FL-Venus (ratio of FL-Venus to FLAG in the IP) relative to FLAG-FL: 5.7 fold
- fold of co-precipitated FL-Venus (ratio of FL-Venus to FLAG in the IP) relative to FLAG-MP18: 2.3 fold
Substance: TDP-FL fused to Venus (from UniProt Q13148 1-414) (natural protein)
